Measured values published in patent US6762290.

Key:
[1] = target: VEGF receptors on HUVEC (VEGFR2/KDR) (Homo sapiens) (UniProt P35968); assay: competition; settings: 2'-F pyrimidines; inhibition of 125I-VEGF-165 binding to HUVEC
[2] = target: VEGFR2 (KDR) extracellular domain/Fc (Homo sapiens) (UniProt P35968); assay: filter; settings: 2'-F pyrimidines
c-Met/Fc = c-Met/Fc (UniProt P08581); assay: filter; settings: 2'-F pyrimidines
[3] = target: VEGFR1 (Flt-1) extracellular domain/Fc (UniProt P17948); assay: filter; settings: 2'-F pyrimidines; HBSMC, 37 C
Chain of VEGFR1 (Flt-1) extracellular domain/Fc (P17948 27-758): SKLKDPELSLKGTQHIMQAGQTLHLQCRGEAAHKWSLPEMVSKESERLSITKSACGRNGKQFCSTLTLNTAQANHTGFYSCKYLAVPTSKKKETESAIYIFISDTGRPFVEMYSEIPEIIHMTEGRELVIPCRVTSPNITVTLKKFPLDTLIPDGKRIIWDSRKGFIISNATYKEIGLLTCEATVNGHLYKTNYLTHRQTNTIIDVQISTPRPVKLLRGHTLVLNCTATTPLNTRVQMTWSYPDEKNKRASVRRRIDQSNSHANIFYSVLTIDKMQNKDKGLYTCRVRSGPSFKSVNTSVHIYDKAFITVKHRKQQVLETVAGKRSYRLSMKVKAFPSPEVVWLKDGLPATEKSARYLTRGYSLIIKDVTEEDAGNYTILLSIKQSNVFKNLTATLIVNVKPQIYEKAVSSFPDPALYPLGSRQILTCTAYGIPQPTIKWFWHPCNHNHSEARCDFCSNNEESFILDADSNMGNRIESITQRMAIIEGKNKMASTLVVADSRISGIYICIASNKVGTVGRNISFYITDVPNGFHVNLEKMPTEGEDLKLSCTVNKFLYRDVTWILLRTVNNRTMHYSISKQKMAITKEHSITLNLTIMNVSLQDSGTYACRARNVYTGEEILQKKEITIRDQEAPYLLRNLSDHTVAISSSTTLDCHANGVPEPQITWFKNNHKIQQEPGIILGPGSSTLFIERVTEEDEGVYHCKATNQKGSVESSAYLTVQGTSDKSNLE

Chain of VEGFR2 (KDR) extracellular domain/Fc (Homo sapiens) (P35968 20-764): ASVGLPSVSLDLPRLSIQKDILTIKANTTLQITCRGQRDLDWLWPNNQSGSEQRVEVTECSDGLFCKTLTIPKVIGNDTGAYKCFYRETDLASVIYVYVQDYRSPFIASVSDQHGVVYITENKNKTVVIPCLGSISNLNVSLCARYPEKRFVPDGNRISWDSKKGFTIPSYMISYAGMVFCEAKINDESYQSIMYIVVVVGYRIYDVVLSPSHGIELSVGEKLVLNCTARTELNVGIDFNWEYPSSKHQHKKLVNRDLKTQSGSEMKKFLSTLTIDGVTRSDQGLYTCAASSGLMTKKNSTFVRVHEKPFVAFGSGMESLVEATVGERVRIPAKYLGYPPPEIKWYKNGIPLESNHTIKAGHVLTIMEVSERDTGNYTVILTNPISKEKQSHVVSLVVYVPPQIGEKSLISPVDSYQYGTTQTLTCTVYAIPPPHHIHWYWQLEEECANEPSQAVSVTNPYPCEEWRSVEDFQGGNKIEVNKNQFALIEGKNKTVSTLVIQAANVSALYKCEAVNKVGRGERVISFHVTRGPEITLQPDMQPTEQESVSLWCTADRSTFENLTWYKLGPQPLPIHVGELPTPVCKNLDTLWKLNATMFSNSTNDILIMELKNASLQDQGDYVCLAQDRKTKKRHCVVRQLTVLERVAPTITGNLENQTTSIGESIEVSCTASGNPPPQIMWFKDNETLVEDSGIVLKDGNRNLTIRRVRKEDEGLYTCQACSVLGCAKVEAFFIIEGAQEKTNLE
Chain of c-Met/Fc (P08581 25-932): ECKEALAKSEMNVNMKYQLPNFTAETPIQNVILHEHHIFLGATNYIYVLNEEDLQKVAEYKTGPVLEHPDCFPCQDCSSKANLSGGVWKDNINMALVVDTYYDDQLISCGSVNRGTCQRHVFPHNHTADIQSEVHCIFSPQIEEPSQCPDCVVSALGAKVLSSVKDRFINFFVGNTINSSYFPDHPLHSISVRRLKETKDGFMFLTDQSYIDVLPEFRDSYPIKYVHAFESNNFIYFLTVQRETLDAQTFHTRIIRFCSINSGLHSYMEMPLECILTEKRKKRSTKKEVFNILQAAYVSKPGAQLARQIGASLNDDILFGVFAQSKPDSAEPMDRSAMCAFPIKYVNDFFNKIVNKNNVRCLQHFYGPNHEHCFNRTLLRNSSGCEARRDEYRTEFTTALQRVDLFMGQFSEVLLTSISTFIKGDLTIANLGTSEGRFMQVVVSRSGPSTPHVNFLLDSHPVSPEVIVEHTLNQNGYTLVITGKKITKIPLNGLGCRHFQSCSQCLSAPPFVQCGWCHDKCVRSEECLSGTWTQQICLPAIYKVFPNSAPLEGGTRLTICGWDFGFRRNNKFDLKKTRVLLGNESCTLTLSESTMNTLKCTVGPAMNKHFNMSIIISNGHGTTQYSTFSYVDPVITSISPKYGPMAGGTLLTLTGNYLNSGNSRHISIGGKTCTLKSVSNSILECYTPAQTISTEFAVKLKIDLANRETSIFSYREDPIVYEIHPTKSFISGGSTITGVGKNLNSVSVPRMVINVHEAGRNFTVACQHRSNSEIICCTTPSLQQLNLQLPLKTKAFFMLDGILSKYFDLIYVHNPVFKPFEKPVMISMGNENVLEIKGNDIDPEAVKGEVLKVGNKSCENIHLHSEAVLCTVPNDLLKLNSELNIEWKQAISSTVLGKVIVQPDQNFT
Chain of VEGF receptors on HUVEC (VEGFR2/KDR) (Homo sapiens) (P35968 20-1356): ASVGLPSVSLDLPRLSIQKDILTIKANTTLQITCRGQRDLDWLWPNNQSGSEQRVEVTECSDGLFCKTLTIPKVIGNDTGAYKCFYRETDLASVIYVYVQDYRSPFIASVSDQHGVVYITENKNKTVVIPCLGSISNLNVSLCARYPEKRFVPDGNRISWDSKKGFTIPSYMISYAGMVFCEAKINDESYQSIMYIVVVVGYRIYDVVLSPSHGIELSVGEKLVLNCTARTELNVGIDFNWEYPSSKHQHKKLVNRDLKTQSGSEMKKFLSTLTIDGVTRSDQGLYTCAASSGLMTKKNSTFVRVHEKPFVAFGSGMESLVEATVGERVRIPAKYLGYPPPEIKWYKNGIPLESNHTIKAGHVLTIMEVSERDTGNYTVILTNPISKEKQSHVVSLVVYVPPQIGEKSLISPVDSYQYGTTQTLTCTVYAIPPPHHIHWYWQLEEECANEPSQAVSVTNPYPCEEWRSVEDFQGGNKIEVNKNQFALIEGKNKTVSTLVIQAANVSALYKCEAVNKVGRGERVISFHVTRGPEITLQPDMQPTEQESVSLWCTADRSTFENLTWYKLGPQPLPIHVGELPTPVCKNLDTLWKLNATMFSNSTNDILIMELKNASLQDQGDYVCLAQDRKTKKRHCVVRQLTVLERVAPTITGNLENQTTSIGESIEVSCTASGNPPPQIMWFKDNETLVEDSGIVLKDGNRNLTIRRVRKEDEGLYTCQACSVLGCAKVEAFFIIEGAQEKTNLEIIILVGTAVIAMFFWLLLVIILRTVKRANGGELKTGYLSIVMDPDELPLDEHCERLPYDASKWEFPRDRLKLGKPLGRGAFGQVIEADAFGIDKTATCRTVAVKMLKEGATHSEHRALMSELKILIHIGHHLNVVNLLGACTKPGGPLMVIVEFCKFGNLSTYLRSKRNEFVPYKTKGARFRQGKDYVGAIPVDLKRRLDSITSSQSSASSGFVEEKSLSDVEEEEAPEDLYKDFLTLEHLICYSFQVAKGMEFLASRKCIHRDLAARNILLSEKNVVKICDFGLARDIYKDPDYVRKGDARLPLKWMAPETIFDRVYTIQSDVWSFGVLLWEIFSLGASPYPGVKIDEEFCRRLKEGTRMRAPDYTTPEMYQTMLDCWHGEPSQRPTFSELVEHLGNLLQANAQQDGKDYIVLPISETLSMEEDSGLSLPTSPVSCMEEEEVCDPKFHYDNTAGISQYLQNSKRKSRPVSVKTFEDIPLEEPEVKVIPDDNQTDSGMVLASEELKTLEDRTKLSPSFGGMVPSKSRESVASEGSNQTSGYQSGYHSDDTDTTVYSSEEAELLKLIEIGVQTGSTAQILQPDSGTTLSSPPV

Sequence: GGGAGGACGAUGCGGACANAUAACACAGGGCCUGCUUGGAUCACACUGAUUGCGCCCAGACGACUCGCCCGA [K17]
- IC50 [1]: 163 nM
- Kd [2]: 0.24 nM

Sequence: GGGAGGACGAUGCGGNNNNNNNNNNNNNNNNNNNNNNNNNNNNNNNNNNNNNNNNCAGACGACUCGCCCGA [KDR SELEX round 6 pool]
- Kd ([2]; HBSMC (Mg, Ca), 37 C): 0.44 nM

Sequence: GGGAGGACGAUGCGGAGCACUUGACCCACNACCAGAAAGCCAGCCCAGACGACUCGCCCGA [K6]
- Kd ([2]; 30N clone): 0.98 nM

Sequence: GGGAGGACGAUGCGGNNNNNNNNNNNNNNNNNNNNNNNNNNNNNNNNNNNNNNNNCAGACGACUCGCCCGA [KDR SELEX round 5 pool]
- Kd ([2]; HBSMC, 37 C): 0.83 nM
- Kd ([2]; comparison with cMet/Fc): 0.76 nM
- Kd (c-Met/Fc; specificity control for Fc binding): 74 nM

Sequence: GGGAGGACGAUGCGGNNNNNNNNNNNNNNNNNNNNNNNNNNNNNNNNNNNNNNNNCAGACGACUCGCCCGA [Flt-1 SELEX round 5 pool]
- Kd [3]: 0.093 nM

Sequence: GGGAGGACGAUGCGGAUCAUACCGGGUCAUAACACCGNUCACGGGGCCUUNUCGUCAGACGACUCGCCCGA [K24]
- Kd ([2]; circularly permuted family member): 0.97 nM

Sequence: GGGAGGACGAUGCGGNNNNNNNNNNNNNNNNNNNNNNNNNNNNNNNNNNNNNNNNCAGACGACUCGCCCGA [KDR SELEX round 3 pool]
- Kd ([2]; HBSMC, 37 C): 0.8 nM

Sequence: GGGAGGACGAUGCGGNNNNNNNNNNNNNNNNNNNNNNNNNNNNNNNNNNNNNNNNCAGACGACUCGCCCGA [KDR SELEX round 4 pool]
- Kd ([2]; HBSMC, 37 C): 0.581 nM

Sequence: GGGAGGACGAUGCGGNNNNNNNNNNNNNNNNNNNNNNNNNNNNNNNNNNNNNNNNCAGACGACUCGCCCGA [KDR SELEX round 2 pool]
- Kd ([2]; HBSMC, 37 C): 0.68 nM

Sequence: GGGAGGACGAUGCGGNNNNNNNNNNNNNNNNNNNNNNNNNNNNNNNNNNNNNNNNCAGACGACUCGCCCGA [40N7 starting random library (round 0)]
- Kd [3]: 0.2 nM
- Kd ([2]; HBSMC, 37 C): 36 nM
- Kd ([2]; as printed, differs from 36 ± 3 nM in Table 1 legend): 361 nM
- Kd (c-Met/Fc; specificity control): 58 nM
